Laboratory results from patent US8309523 (VIB VZW, dated 2012).

T1: p76 fragment of MALT1 (Avi-tagged expression construct) (human, UniProt Q9UDY8 150-824, Avi-tag biotinylated in vivo by co-expressed BirA)
T1 construct: domain: p76 cleavage fragment; Lacks the N-terminal death domain; also called MALT1 p76; 76 kDa C-terminal fragment
T1 sequence (looked up): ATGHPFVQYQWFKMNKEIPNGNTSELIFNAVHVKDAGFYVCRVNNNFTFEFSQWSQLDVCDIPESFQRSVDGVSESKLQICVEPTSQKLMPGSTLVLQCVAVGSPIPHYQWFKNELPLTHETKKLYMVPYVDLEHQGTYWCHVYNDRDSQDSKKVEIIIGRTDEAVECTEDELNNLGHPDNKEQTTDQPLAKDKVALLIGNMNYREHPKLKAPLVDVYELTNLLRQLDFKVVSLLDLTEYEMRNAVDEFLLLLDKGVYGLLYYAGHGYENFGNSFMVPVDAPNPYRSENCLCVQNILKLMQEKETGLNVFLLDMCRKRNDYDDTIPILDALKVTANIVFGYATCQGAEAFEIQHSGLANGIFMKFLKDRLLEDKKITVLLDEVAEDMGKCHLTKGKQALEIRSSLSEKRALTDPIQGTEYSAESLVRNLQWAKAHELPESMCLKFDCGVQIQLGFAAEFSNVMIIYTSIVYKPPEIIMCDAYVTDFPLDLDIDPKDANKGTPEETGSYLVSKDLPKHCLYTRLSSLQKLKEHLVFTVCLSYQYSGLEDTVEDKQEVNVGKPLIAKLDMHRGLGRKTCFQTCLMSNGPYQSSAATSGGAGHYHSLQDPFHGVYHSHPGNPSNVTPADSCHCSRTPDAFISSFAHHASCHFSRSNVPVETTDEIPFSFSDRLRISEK

T2: p76 T6Ig/C-m (E313A/E316A and E806A) (human, UniProt Q9UDY8 150-824, Avi-tag biotinylated in vivo by co-expressed BirA)
T2 construct: domain: p76 cleavage fragment
T2 sequence (looked up): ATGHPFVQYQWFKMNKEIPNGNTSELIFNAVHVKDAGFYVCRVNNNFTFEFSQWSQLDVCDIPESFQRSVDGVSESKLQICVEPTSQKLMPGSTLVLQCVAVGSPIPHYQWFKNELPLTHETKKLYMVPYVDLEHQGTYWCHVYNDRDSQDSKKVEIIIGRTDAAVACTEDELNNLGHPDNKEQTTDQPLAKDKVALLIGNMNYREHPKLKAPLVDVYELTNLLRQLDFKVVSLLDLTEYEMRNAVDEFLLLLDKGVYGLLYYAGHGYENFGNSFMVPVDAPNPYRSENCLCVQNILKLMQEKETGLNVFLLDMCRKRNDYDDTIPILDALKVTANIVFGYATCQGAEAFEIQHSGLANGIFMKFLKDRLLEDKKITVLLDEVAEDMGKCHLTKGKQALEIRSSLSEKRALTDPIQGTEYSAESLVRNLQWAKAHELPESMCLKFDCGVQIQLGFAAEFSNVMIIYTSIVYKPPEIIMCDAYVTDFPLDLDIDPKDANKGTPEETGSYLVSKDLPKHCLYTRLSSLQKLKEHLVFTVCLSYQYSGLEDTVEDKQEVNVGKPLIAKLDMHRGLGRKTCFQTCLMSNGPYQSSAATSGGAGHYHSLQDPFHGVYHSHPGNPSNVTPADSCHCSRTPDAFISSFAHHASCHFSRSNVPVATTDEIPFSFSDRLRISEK


How the values were obtained:
[1] = molecular target: T1, p76 fragment of MALT1 (Avi-tagged …); assay: bio-IP from HEK293T cells, anti-BCL10 immunoblot
Text: (§1) FIG. 5: p76 activates NFκB via TRAF6. […] Panel B) TRAF6 mediates NFκB signaling by p76. Top: NFκB-reporter assays of HEK293T cells transiently expressing MALT1, p76 and mutants or MALT1-C. Bottom: MALT1, p76 or MALT1-C, transiently expressed in HEK293T cells, were purified via bio-IPs and immunoblotted with anti-MALT1 (to show equal expression), anti-TRAF6 and anti-BCL10. Panel C) p76 induces polyubiquitination of IKKγ. Immunoblot analysis of bio-IP and IKKγ-IP of 293T cells transfected with pcD-F-IKKγ and pcd-HA-Ub in combination with indicated Avi-tagged MALT1 constructs. Panel D) BCL10 is not involved in NFκB signaling by p76. NFκB reporter assays of HEK-293T cells transfected with siRNA duplexes against MALT1, BCL10 or GFP (as control) followed by transient transfection with p76. The expression levels were determined by immunoblot with anti-MALT1 and anti-BCL10. NFκB-dependent luciferase activity […] is shown as fold induction of vector-transfected cells and represents the mean+/−S.D. of three independent experiments.

[2] = molecular target: T2, p76 T6Ig/C-m (E313A/E316A and E806A); assay: bio-IP from HEK293T cells, anti-TRAF6 immunoblot
Text: as §1
(§2) NFκB activation by MALT1 requires TRAF6 binding via two distinct sites (19), which are both present in the p76 cleavage fragment. Mutation of one TRAF6 binding site, either E313A/E316A (T6Ig-m) or E806A (T6C-m), abolished the potential of p76 to activate NFκB signaling in 293T cells (FIG. 5, Panel B). […] Furthermore, NFκB activation by p76 in 293T cells was associated with increased polyubiquitination of IKKγ (FIG. 5, Panel C).

[3] = molecular target: T1, p76 fragment of MALT1 (Avi-tagged …); assay: bio-IP from HEK293T cells, anti-TRAF6 immunoblot
Text: as §1, §2

Row | binding result [1] | binding result [2] | binding result [3] | Binder
1 | no binding |  |  | BCL10 (other, UniProt O95999 1-233, looked up, Co-precipitated from lysates of human cell lines) MEPTAPSLTEEDLTEVKKDALENLRVYLCEKIIAERHFDHLRAKKILSREDTEEISCRTSSRKRAGKLLDYLQENPKGLDTLVESIRREKTQNFLIQKITDEVLKLRNIKLEHLKGLKCSSCEPFPDGATNNLSRSNSDESNFSEKLRASTVMYHPEGESSTTPFFSTNSSLNLPVLEVGRTENTIFSSTTLPRPGDPGAPPLPPDLQLEEEGTCANSSEMFLPLRSRTVSRQ
2 |  | no binding | binds | TRAF6 (other, UniProt Q9Y4K3 1-522, looked up, Co-precipitated from lysates of human cell lines) MSLLNCENSCGSSQSESDCCVAMASSCSAVTKDDSVGGTASTGNLSSSFMEEIQGYDVEFDPPLESKYECPICLMALREAVQTPCGHRFCKACIIKSIRDAGHKCPVDNEILLENQLFPDNFAKREILSLMVKCPNEGCLHKMELRHLEDHQAHCEFALMDCPQCQRPFQKFHINIHILKDCPRRQVSCDNCAASMAFEDKEIHDQNCPLANVICEYCNTILIREQMPNHYDLDCPTAPIPCTFSTFGCHEKMQRNHLARHLQENTQSHMRMLAQAVHSLSVIPDSGYISEVRNFQETIHQLEGRLVRQDHQIRELTAKMETQSMYVSELKRTIRTLEDKVAEIEAQQCNGIYIWKIGNFGMHLKCQEEEKPVVIHSPGFYTGKPGYKLCMRLHLQLPTAQRCANYISLFVHTMQGEYDSHLPWPFQGTIRLTILDQSEAPVRQNHEEIMDAKPELLAFQRPTIPRNPKGFGYVTFMHLEALRQRTFIKDDTLLVRCEVSTRFDMGSLRREGFQPRSTDAGV
